{
  "source": "patent US20080311034A1",
  "about": "(published 2008)",
  "key": {"[1]": {"target": "T1, recombinant polyhistidine tagged mouse FcγRI (R&D Systems) (mouse, UniProt P26151 25-297)", "T1 construct": "Bought; also called murine FcγRI", "T1 sequence (looked up)": "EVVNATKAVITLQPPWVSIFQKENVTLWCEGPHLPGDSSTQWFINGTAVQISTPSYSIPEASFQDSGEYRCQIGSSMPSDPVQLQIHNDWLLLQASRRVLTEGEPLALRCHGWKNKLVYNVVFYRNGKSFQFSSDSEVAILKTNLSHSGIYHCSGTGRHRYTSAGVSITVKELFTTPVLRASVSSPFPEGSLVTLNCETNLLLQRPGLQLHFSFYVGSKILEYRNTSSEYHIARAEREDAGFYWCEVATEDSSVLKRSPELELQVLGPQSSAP", "assay": "ELISA, His-tagged mouse receptor captured on copper-coated plate", "protocol": "(§1) Commercially-available recombinant polyhistidine tagged mouse FcγRI, FcγRII, FcγRIII, and FcγRIV (R&D Systems) were diluted to 1 μg/ml in PBS and 100 μl/well was captured onto copper-coated plates (Pierce) overnight at 4° C. Plates were washed three times with wash buffer (0.15M NaCl, 0.02% Tween 20). Non-specific binding was blocked using 200 μl/well SuperBlock (Pierce) for 15 minutes at room temperature. Plates were washed three times as above. […] Plates were washed three times as above to remove unbound mAb. CNTO 860 variants that bound to plated receptors were detected using 100 μl/well HRP-labeled goat F(ab′)₂ anti-human IgG F(ab′)₂ (Jackson ImmunoResearch) diluted 1:5,000 in PBS incubated at room temperature for 1 hour. Plates were washed five times using wash buffer as above, and developed using 100 μl/well TMB Stable Stop substrate (Fitzgerald Industries) stopped with 0.5M HCl. Absorbance was detected at 450 nm.\n(§2) All binding assays were in an ELISA format, with recombinant soluble receptor captured on coated EIA plates."}, "[2]": {"target": "T2, recombinant polyhistidine tagged mouse FcγRII (R&D Systems) (mouse, UniProt P08101 40-217, limits assumed)", "T2 construct": "Bought; also called FcRII", "T2 sequence (looked up)": "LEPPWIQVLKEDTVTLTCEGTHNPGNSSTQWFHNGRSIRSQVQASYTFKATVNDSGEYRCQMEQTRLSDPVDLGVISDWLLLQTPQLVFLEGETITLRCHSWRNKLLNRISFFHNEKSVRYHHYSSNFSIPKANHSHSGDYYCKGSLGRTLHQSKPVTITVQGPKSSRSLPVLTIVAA", "assay": "ELISA, His-tagged mouse receptor captured on copper-coated plate", "protocol": "as §1, §2"}, "[3]": {"target": "T3, recombinant polyhistidine tagged mouse FcγRIII (R&D Systems) (mouse, UniProt P08508 31-215)", "T3 construct": "Bought", "T3 sequence (looked up)": "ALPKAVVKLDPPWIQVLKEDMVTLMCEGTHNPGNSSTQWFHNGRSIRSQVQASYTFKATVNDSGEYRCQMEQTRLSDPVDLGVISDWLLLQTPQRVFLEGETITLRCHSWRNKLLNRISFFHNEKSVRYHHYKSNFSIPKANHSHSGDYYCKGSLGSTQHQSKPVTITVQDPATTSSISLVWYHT", "assay": "ELISA, His-tagged mouse receptor captured on copper-coated plate", "protocol": "as §1, §2"}, "[4]": {"target": "T4, recombinant polyhistidine tagged mouse FcγRIV (R&D Systems) (mouse, UniProt A0A0B4J1G0 21-203)", "T4 construct": "Bought", "T4 sequence": "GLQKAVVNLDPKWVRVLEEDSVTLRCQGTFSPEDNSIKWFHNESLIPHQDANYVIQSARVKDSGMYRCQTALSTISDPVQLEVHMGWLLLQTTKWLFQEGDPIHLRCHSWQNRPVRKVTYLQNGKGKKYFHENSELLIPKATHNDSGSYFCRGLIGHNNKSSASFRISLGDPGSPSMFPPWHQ", "assay": "ELISA, His-tagged mouse receptor captured on copper-coated plate", "protocol": "as §1, §2"}, "[5]": {"target": "FcγRIIIa on NK cells of human PBMC (human, UniProt P08637 17-254)", "sequence (P08637 17-254)": "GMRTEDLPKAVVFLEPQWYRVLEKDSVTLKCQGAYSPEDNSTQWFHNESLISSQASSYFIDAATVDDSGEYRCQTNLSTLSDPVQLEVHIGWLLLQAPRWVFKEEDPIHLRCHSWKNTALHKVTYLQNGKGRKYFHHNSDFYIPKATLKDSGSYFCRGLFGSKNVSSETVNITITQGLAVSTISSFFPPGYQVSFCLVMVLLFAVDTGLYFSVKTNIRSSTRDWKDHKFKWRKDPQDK", "assay": "cell-based or functional assay"}},
  "data": [
    {"binder": "CHO-CNTO 860 A330I (antibody, IgG1, N-linked glycan at Asn297 of the heavy chain (CHO-type, highly fucosylated); not carried by the letters, IgG1/kappa Fc variant; EU numbering; also called A330I (CHO cell-derived); copies: 2 + 2) heavy: not shown light: DIQMTQSPSSLSASVGDRVTITCKASQDIRKYLNWYQQKPGKAPKLLIYYATSLADGVPSRFSGSGSGTDYTFTISSLQPEDIATYYCLQHGESPYTFGQGTKLEITRTVAAPSVFIFPPSDEQLKSGTASVVCLLNNFYPREAKVQWKVDNALQSGNSQESVTEQDSKDSTYSLSSTLTLSKADYEKHKVYACEVTHQGLSSPVTKSFNRGEC", "values": [
      {"measurement": "ECOD1 (concentration required for an O.D. value of 1.0)", "setting": "[1]", "value": 90000, "unit": "ng/mL"},
      {"measurement": "ECOD1 (concentration required for an O.D. value of 1.0)", "setting": "[2]", "value": 8000, "unit": "ng/mL"},
      {"measurement": "ECOD1 (concentration required for an O.D. value of 1.0)", "setting": "[3]", "value": 12000, "unit": "ng/mL"},
      {"measurement": "ECOD1 (concentration required for an O.D. value of 1.0)", "setting": "[4]", "value": 130, "unit": "ng/mL"}
    ]},
    {"binder": "CHO-CNTO 860 A330Y (antibody, human IgG1, kappa, N-linked glycan at Asn297 of the heavy chain (CHO-type, highly fucosylated); not carried by the letters, IgG1/kappa Fc variant; transiently expressed in CHO cells (p4183/p4146); EU numbering; also called A330Y (CHO cell-derived); copies: 2 + 2) heavy: not shown light: DIQMTQSPSSLSASVGDRVTITCKASQDIRKYLNWYQQKPGKAPKLLIYYATSLADGVPSRFSGSGSGTDYTFTISSLQPEDIATYYCLQHGESPYTFGQGTKLEITRTVAAPSVFIFPPSDEQLKSGTASVVCLLNNFYPREAKVQWKVDNALQSGNSQESVTEQDSKDSTYSLSSTLTLSKADYEKHKVYACEVTHQGLSSPVTKSFNRGEC", "values": [
      {"measurement": "EC25 (ng/ml), ADCC of HCT116 cells by human PBMC", "setting": "[5]", "value": 4, "unit": "ng/mL"},
      {"measurement": "ECOD1 (concentration required for an O.D. value of 1.0)", "setting": "[1]", "value": 5000, "unit": "ng/mL"},
      {"measurement": "ECOD1 (concentration required for an O.D. value of 1.0)", "setting": "[2]", "value": 2700, "unit": "ng/mL"},
      {"measurement": "ECOD1 (concentration required for an O.D. value of 1.0)", "setting": "[3]", "value": 4000, "unit": "ng/mL"},
      {"measurement": "ECOD1 (concentration required for an O.D. value of 1.0)", "setting": "[4]", "value": 100, "unit": "ng/mL"}
    ]},
    {"binder": "YB2/0-CNTO 860 A330Y (antibody, human IgG1, kappa, N-linked glycan at heavy chain Asn297 (YB2/0-type, low fucose); not carried by the letters, IgG1/kappa Fc variant; stably expressed in YB2/0 cells (p4176/p2402); EU numbering; also called A330Y (YB2/0 cell-derived); copies: 2 + 2) heavy: not shown light: DIQMTQSPSSLSASVGDRVTITCKASQDIRKYLNWYQQKPGKAPKLLIYYATSLADGVPSRFSGSGSGTDYTFTISSLQPEDIATYYCLQHGESPYTFGQGTKLEITRTVAAPSVFIFPPSDEQLKSGTASVVCLLNNFYPREAKVQWKVDNALQSGNSQESVTEQDSKDSTYSLSSTLTLSKADYEKHKVYACEVTHQGLSSPVTKSFNRGEC", "values": [
      {"measurement": "EC25 (ng/ml), ADCC of HCT116 cells by human PBMC", "setting": "[5]", "value": 0.4, "unit": "ng/mL"},
      {"measurement": "ECOD1 (concentration required for an O.D. value of 1.0)", "setting": "[1]", "value": 4000, "unit": "ng/mL"},
      {"measurement": "ECOD1 (concentration required for an O.D. value of 1.0)", "setting": "[2]", "value": 6000, "unit": "ng/mL"},
      {"measurement": "ECOD1 (concentration required for an O.D. value of 1.0)", "setting": "[3]", "value": 6500, "unit": "ng/mL"},
      {"measurement": "ECOD1 (concentration required for an O.D. value of 1.0)", "setting": "[4]", "value": 30, "unit": "ng/mL"}
    ]},
    {"binder": "CHO-CNTO 860 I332E/S239D (antibody, human IgG1, kappa, Heavy chain N297 carries the CHO-type N-linked glycan (about 95% fucosylated); not carried by the letters., IgG1/kappa Fc variant; transiently expressed in CHO cells (p4186/p4146); EU numbering; also called S239D/I332E (CHO cell-derived); copies: 2 + 2) heavy: not shown light: DIQMTQSPSSLSASVGDRVTITCKASQDIRKYLNWYQQKPGKAPKLLIYYATSLADGVPSRFSGSGSGTDYTFTISSLQPEDIATYYCLQHGESPYTFGQGTKLEITRTVAAPSVFIFPPSDEQLKSGTASVVCLLNNFYPREAKVQWKVDNALQSGNSQESVTEQDSKDSTYSLSSTLTLSKADYEKHKVYACEVTHQGLSSPVTKSFNRGEC", "values": [
      {"measurement": "EC25 (ng/ml), ADCC of HCT116 cells by human PBMC", "setting": "[5]", "value": 0.7, "unit": "ng/mL"},
      {"measurement": "ECOD1 (concentration required for an O.D. value of 1.0)", "setting": "[1]", "value": 1700, "unit": "ng/mL"},
      {"measurement": "ECOD1 (concentration required for an O.D. value of 1.0)", "setting": "[2]", "value": 900, "unit": "ng/mL"},
      {"measurement": "ECOD1 (concentration required for an O.D. value of 1.0)", "setting": "[3]", "value": 1100, "unit": "ng/mL"},
      {"measurement": "ECOD1 (concentration required for an O.D. value of 1.0)", "setting": "[4]", "value": 11, "unit": "ng/mL"}
    ]},
    {"binder": "YB2/0-CNTO 860 S239D/I332E (antibody, human IgG1, kappa, N-linked glycan at heavy chain Asn297 (YB2/0-type, low fucose); not carried by the letters, IgG1/kappa Fc variant; stably expressed in YB2/0 cells (p4179/p2402); EU numbering; also called S239D/I332E (YB2/0 cell-derived); copies: 2 + 2) heavy: not shown light: DIQMTQSPSSLSASVGDRVTITCKASQDIRKYLNWYQQKPGKAPKLLIYYATSLADGVPSRFSGSGSGTDYTFTISSLQPEDIATYYCLQHGESPYTFGQGTKLEITRTVAAPSVFIFPPSDEQLKSGTASVVCLLNNFYPREAKVQWKVDNALQSGNSQESVTEQDSKDSTYSLSSTLTLSKADYEKHKVYACEVTHQGLSSPVTKSFNRGEC", "values": [
      {"measurement": "EC25 (ng/ml), ADCC of HCT116 cells by human PBMC", "setting": "[5]", "value": 0.2, "unit": "ng/mL"},
      {"measurement": "ECOD1 (concentration required for an O.D. value of 1.0)", "setting": "[1]", "value": 1900, "unit": "ng/mL"},
      {"measurement": "ECOD1 (concentration required for an O.D. value of 1.0)", "setting": "[2]", "value": 6000, "unit": "ng/mL"},
      {"measurement": "ECOD1 (concentration required for an O.D. value of 1.0)", "setting": "[3]", "value": 2800, "unit": "ng/mL"},
      {"measurement": "ECOD1 (concentration required for an O.D. value of 1.0)", "setting": "[4]", "value": 7, "unit": "ng/mL"}
    ]}
  ]
}
